Reference: publication PMC5534430, “Crystal structure of a Pseudomonas malonate decarboxylase holoenzyme hetero-tetramer” (Nature Communications, 2017)

Experiments:
[1] = molecular target: T1, MDC hetero-tetramer (MdcA active site) (Pseudomonas aeruginosa, UniProt Q9I6T0); assay: X-ray crystal structure, […] Å; assay type: binding; details: malonate from the crystallization solution; MdcA active site between domains AN and AC; apo MdcC
T1 construct: hybrid hetero-tetramer: full-length MdcA (1-554), MdcD, MdcE of P. aeruginosa and full-length MdcC of P. fluorescens without prosthetic group; only MdcE N-terminal His-tagged; E. coli Rosetta; 140 kD, 1:1:1:1; with Malonate decarboxylase acyl carrier protein (malonate decarboxylase subunit delta), Pseudomonas fluorescens; Malonate decarboxylase subunit beta; Malonate decarboxylase subunit gamma
T1 sequence (Q4K4F7 whole entry, one chain of several, further chain, the tested form may be a part): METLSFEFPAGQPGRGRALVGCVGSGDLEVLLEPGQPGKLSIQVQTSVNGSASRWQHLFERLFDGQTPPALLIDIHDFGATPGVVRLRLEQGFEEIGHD
T1 sequence (Q9I6T0 entry or part of it, one chain of several): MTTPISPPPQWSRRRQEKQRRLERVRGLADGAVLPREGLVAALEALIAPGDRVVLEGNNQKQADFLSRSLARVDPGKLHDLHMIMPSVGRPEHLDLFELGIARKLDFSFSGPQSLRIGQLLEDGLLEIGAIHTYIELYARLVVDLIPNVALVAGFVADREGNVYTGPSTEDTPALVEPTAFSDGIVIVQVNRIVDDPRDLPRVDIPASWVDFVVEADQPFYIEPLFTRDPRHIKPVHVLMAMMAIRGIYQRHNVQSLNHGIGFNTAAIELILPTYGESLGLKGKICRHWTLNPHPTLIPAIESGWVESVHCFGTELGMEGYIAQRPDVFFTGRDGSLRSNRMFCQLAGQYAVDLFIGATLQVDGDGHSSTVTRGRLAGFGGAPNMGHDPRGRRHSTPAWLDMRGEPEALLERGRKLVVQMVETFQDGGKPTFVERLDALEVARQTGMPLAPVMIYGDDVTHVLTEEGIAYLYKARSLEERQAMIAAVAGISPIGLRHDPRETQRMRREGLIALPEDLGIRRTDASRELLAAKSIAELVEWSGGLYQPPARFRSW

[2] = molecular target: MdcE subunit of malonate decarboxylase (P. aeruginosa), N-terminal His tag (P. aeruginosa); assay: SEC; gel filtration of the co-expressed, purified MdcD–MdcE complex
[3] = substrate: CC(C)(COP(=O)(O)OP(=O)(O)OC[C@H]1O[C@@H](n2cnc3c(N)ncnc32)[C@H](O)[C@@H]1OP(=O)(O)O)[C@@H](O)C(=O)NCCC(=O)NCCSC(=O)CC(=O)O; assay: purified protein; assay type: biochemical, Pseudomonas aeruginosa; details: decarboxylation, 2.5 μM enzyme, 20 mM Tris pH 8.0, Hill equation fit, Hill coefficient 1.68 ± 0.13

`O=C(O)CC(=O)O` [malonate] was tested. Which “X-ray crystal structure, 2.2 Å” value [1] did it give?
Its value is “A malonate molecule from the crystallization solution is bound in the active site”.

B1: MdcD subunit of malonate decarboxylase (P. aeruginosa) (natural protein)
chain: MTDVARLLALRSFTELGARQRARALLDAGSFRELLDPFAGVQSPWLERQGIVPQADDGVVVARGLLDGQPAVLAAIEGAFQGGSLGEVSGAKIAGALELAAEDNRNGVPTRALLLLETGGVRLQEANLGLAAIAEIQAAIVDLQRYQPVVAVIAGPVGCFGGMSIAAGLCSYVLVTREARLGLNGPQVIEQEAGIAEYDSRDRPFIWSLTGGEQRFASGLADAYLADDLDEVRTSVLAYFAKGLPARPRCRRAEDYLRRLGDLDTAEQPDAAGVRRLYQGLGQGDAT
How did the stoichiometry N [2] turn out when B1 was run?
The stoichiometry N was 1.

B2: MdcD–MdcE complex (Pseudomonas aeruginosa PAO1) (protein)
chain 1: B1 chain
chain 2: MSQPFASRGLAWFQALAGSLAPRPGDPASLRVADAELDGYPVRFLAVVPDPDNPFPRARQGEVGLLEGWGLAAAVDEALEADREAPRKRALLAIVDVPSQAYGRREEALGIHQALAGAVDAYARARLAGHPLIGLLVGKAMSGAFLAHGYQANRLIALHDPGVMVHAMGKAAAARITLRSVEELEALAAKVPPMAYDIDSYASLGLLWRTLPVETVEVPSTADLVRVRTCLGEALADILGGPRDLGGRLGAANREASARVRRLLREQW
notes: full-length; N-terminal His-tagged MdcE (28 kD), untagged MdcD (30 kD); co-expressed in E. coli BL21Star (DE3) from pCDFDuet; 1:1 hetero-dimer in solution
Which results are given for B2?
K0.5 [3]: 100 ± 5 µM; kcat [3]: 2.3 ± 0.1 s⁻¹
